Patent US20090155256A1

Biological target: His-tagged domains of human FcγRII (R&D Systems, Cat # 1330-CD) (human) (UniProt P12318)
Test: SPR (Biacore 3000), His-tagged receptor captured by penta-His antibody on CM5 chip, antibody injected; RU relative to control

- Relative Binding Capability (%): 100%
Substance: Bapineuzumab (humanized 3D6, human IgG1, no Fc mutations) (antibody)
